The labels stand for the following.
B1: Antibody Mauldascha (antibody, V domains shown)
VH: QVQLVQSGAEVKKPGSSVKVSCKASGYTFTSSYINWVRQAPGQGLEWMGTINAVSGSTSYAQKFQGRVTITADESTSTAYMELSSLRSEDTAVYYCARGGWFDYWGQGTLVTVSS
VL: QSALTQPRSVSGSPGQSVTISCTGTSSDVGSYNYVNWYQQHPGKAPKLMIYGVSKRESGVPDRFSGSKSGNTASLTISGLQAEDEADYYCGTFAGGKYYGVFGGGTKLTVL
B2: Antibody Schnitzbrot (antibody, V domains shown)
VH: QVQLVQSGAEVKKPGSSVKVSCKASGYKFTSSYINWVRQAPGQGLEWMGTINAVSGSTSYAQKFQGRVTITADTSTSTAYMELSSLRSEDTAVYYCARGGWFDYWGQGTLVTVSS
VL: QSALTQPRSVSGSPGQSVTISCTGTSSDVGSYNYVNWYQQHPGKAPKLMIYGVSKRDSGVPDRFSGSKSGNTASLTISGLQAEDEADYYCGTFAGGKYYGVFGGGTKLTVL
B3: Antibody Krapfa (antibody, V domains shown)
VH: QVQLVQSGAEVKKPGSSVKVSCKASGHKFTSSYINWVRQAPGQGLEWMGTINAVSGSTSYAQKFQGRVTITADTSTSTAYMELSSLRSEDTAVYYCARGGWFDYWGQGTLVTVSS
VL: QSALTQPRSVSGSPGQSVTISCTGTSSDVGSKNYVNWYQQHPGKAPKLMIYGVSKRESGVPDRFSGSKSGNTASLTISGLQAEDEADYYCGTFAGGKYYGVFGGGTKLTVL
B4: Antibody Seela (antibody, V domains shown)
VH: QVQLVQSGAEVKKPGSSVKVSCKASGYKFTSSYINWVRQAPGQGLEWMGTINAVSGSTSYAQKFQGRVTITADTSTSTAYMELSSLRSEDTAVYYCARGGWFDYWGQGTLVTVSS
VL: QSALTQPRSVSGSPGQSVTISCTGTSSDVGSKNYVNWYQQHPGKAPKHMIYGVSKRESGVPDRFSGSKSGNTASLTISGLQAEDEADYYCGTFAGGKYYGVFGGGTKLTVL
B5: Antibody Wiebela (antibody, V domains shown)
VH: QVQLVQSGAEVKKPGSSVKVSCKASGYKFTSSYINWVRQAPGQGLEWMGTINAVSGSTSYAQKFQGRVTITADTSTSTAYMELSSLRSEDTAVYYCARGGWFDYWGQGTLVTVSS
VL: QSALTQPRSVSGSPGQSVTISCTGTSSDVGSKNYVNWYQQHPGKAPKLMIYGVSKRESGVPDRFSGSKSGNTASLTISGLQAEDEADYYCGTFAGGKYYGVFGGGTKLTVL
B6: Antibody Rauchfloisch (antibody, V domains shown)
VH: QVQLVQSGAEVKKPGSSVKVSCKASGYTFTSSYINWVRQAPGQGLEWMGTINAVSGSTSYAQKFQGRVTITADTSTSTAYMELSSLRSEDTAVYYCARGGWFDYWGQGTLVTVSS
VL: QSALTQPRSVSGSPGQSVTISCTGTSSDVGSRNYVNWYQQHPGKAPKLMIYGVSKRESGVPDRFSGSKSGNTASLTISGLQAEDEADYYCGTFAGGDYYGVFGGGTKLTVL
B7: Antibody Hegemark (antibody, V domains shown)
VH: QVQLVQSGAEVKKPGSSVKVSCKASGYKFTSSYINWVRQAPGQGLEWMGTINAVSGSTSYAQKFQGRVTITADTSTSTAYMELSSLRSEDTAVYYCARGGWFDYWGQGTLVTVSS
VL: QSALTQPRSVSGSPGQSVTISCTGTSSDVGSKNYVNWYQQHPGKAPKLMIYGVSKRHSGVPDRFSGSKSGNTASLTISGLQAEDEADYYCGTFAGGKYYGVFGGGTKLTVL
B8: Antibody Peitscheschdegga (antibody, V domains shown)
VH: QVQLVQSGAEVKKPGSSVKVSCKASGYKFTSSYINWVRQAPGQGLEWMGTINAVSGSTSYAQKFQGRVTITADTSTSTAYMELSSLRSEDTAVYYCARGGWFDYWGQGTLVTVSS
VL: QSALTQPRSVSGSPGQSVTISCTGTSSDVGSKNYVNWYQQHPGKAPKLMIHGVSKRESGVPDRFSGSKSGNTASLTISGLQAEDEADYYCGTFAGGKYYGVFGGGTKLTVL
B9: Antibody Oierspätzla (antibody, V domains shown)
VH: QVQLVQSGAEVKKPGSSVKVSCKASGYTFTSSYINWVRQAPGQGLEWMGTINPVSGSTSYAQKFQGRVTITADTSTSTAYMELSSLRSEDTAVYYCARGGWFDYWGQGTLVTVSS
VL: QSALTQPRSVSGSPGQSVTISCTGTSSDVGSYNYVNWYQQHPGKAPKLMIYGVSKRESGVPDRFSGSKSGNTASLTISGLQAEDEADYYCGTFAGGAYYGVFGGGTKLTVL
B10: Antibody Metzelsupp (antibody, V domains shown)
VH: QVQLVQSGAEVKKPGSSVKVSCKASGYTFTSSYINWVRQAPGQGLEWMGTINAVSGSTSYAQKFQGRVTITADTSTSTAYMELSSLRSEDTAVYYCARGGWFDYWGQGTLVTVSS
VL: QSALTQPRSVSGSPGQSVTISCTGTSSDVGSFNYVNWYQQHPGKAPKLMIRGVSKRESGVPDRFSGSKSGNTASLTISGLQAEDEADYYCGTFAGGAYYGVFGGGTKLTVL
B11: Antibody Nonnafürzla (antibody, V domains shown)
VH: QVQLVQSGAEVKKPGSSVKVSCKASGYTFTSSYINWVRQAPGQGLEWMGTINAVSGSTSYAQKFQGRVTITADTSTSTAYMELSSLRSEDTAVYYCARGGWFDYWGQGTLVTVSS
VL: QSALTQPRSVSGSPGQSVTISCTGTSSDVGSYNYVNWYQQHPGKAPKLMIYGVSKRDSGVPDRFSGSKSGNTASLTISGLQAEDEADYYCGTFAGGKYYGVFGGGTKLTVL
B12: Antibody Zibebe (antibody, V domains shown)
VH: QVQLVQSGAEVKKPGSSVKVSCKASGYKFTSSYINWVRQAPGQGLEWMGTINAVSGSTSYAQKFQGRVTITADESTSTAYMELSSLRSEDTAVYYCARGGWFDYWGQGTLVTVSS
VL: QSALTQPRSVSGSPGQSVTISCTGTSSDVGSYNYVNWYQQHPGKAPKLMIYGVSKRESGVPDRFSGSKSGNTASLTISGLQAEDEADYYCGTFAGGKYYGVFGGGTKLTVL

For the assay, the target named is ActRIIA and ActRIIB (on TGFB/SMAD SBE Reporter HEK293 cells) (human). In words: cell-based or functional assay.
On to B1, for which the IC50, Activin SMAD RGA came to 1.83 nM; the IC50, Myostatin SMAD RGA amounted to 1.42 nM; the IC90, Activin SMAD RGA was determined as 6.72 nM; the IC90, Myostatin SMAD RGA was determined as 13.4 nM.

The molecule B2 came in with an IC50, Activin SMAD RGA of 0.312 nM; an IC50, Myostatin SMAD RGA of 0.624 nM; an IC90, Activin SMAD RGA of 2.52 nM; an IC90, Myostatin SMAD RGA of 19.1 nM.

Take B3: the IC50, Myostatin SMAD RGA was 0.0497 nM and the IC90, Myostatin SMAD RGA was 10400 nM.

B4 showed an IC50, Activin SMAD RGA of 0.338 nM; an IC50, Myostatin SMAD RGA of 0.473 nM; an IC90, Activin SMAD RGA of 4.74 nM; an IC90, Myostatin SMAD RGA of 18.2 nM.

B5: the IC50, Activin SMAD RGA was found to be 0.253 nM; the IC50, Myostatin SMAD RGA was 0.25 nM; the IC90, Activin SMAD RGA came to 3.96 nM; the IC90, Myostatin SMAD RGA is 14.8 nM.

On to B6, for which the IC50, Activin SMAD RGA was determined as 0.668 nM; the IC50, Myostatin SMAD RGA worked out at 1.31 nM; the IC90, Activin SMAD RGA came to 5.11 nM; the IC90, Myostatin SMAD RGA amounted to 18.2 nM.

The molecule B7 gave an IC50, Activin SMAD RGA of 0.304 nM; an IC50, Myostatin SMAD RGA of 0.516 nM; an IC90, Activin SMAD RGA of 4.37 nM; an IC90, Myostatin SMAD RGA of 23.4 nM.

B8 gave an IC50, Activin SMAD RGA of 0.299 nM; an IC50, Myostatin SMAD RGA of 2.84 nM; an IC90, Activin SMAD RGA of 4.92 nM; an IC90, Myostatin SMAD RGA of 48.4 nM.

Turning to B9, the IC50, Activin SMAD RGA turned out to be 0.361 nM; the IC50, Myostatin SMAD RGA was found to be 0.96 nM; the IC90, Activin SMAD RGA was found to be 3.06 nM; the IC90, Myostatin SMAD RGA was found to be 16.8 nM.

On to B10, for which the IC50, Activin SMAD RGA is 0.573 nM; the IC50, Myostatin SMAD RGA was 0.713 nM; the IC90, Activin SMAD RGA amounted to 3.79 nM; the IC90, Myostatin SMAD RGA was 7.72 nM.

B11 came in with an IC50, Activin SMAD RGA of 0.505 nM; an IC50, Myostatin SMAD RGA of 1.32 nM; an IC90, Activin SMAD RGA of 3.81 nM; an IC90, Myostatin SMAD RGA of 27.3 nM.

Molecule B12 gave an IC50, Activin SMAD RGA of 0.542 nM; an IC50, Myostatin SMAD RGA of 1.46 nM; an IC90, Activin SMAD RGA of 7.83 nM; an IC90, Myostatin SMAD RGA of 19 nM.

For the origin of these results see patent publication US20250243286A1 (SIXPEAKS BIO, published 2025).
